Assays:
[1] = target: T1, 4H2745-bN; assay: two-hybrid library CCNG1;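 note: natural log of median RNA to DNA barcode read ratio; higher means stronger binding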
T1 chain: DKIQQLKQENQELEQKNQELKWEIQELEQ

[2] = target: T2, 4H344-bN; assay: two-hybrid library CCNG1;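 note: natural log of median RNA to DNA barcode read ratio; higher means stronger binding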
T2 chain: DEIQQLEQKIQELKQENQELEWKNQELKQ

[3] = target: T3, 4H363-bN; assay: two-hybrid library CCNG1;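 note: natural log of median RNA to DNA barcode read ratio; higher means stronger binding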
T3 chain: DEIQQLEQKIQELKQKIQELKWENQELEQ

[4] = target: T4, 4H3907-bN; assay: two-hybrid library CCNG1;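 note: natural log of median RNA to DNA barcode read ratio; higher means stronger binding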
T4 chain: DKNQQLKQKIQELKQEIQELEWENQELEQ

[5] = target: T5, 4H3961-bN; assay: two-hybrid library CCNG1;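 note: natural log of median RNA to DNA barcode read ratio; higher means stronger binding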
T5 chain: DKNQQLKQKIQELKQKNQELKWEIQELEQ

[6] = target: T6, 4H470-bN; assay: two-hybrid library CCNG1;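 note: natural log of median RNA to DNA barcode read ratio; higher means stronger binding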
T6 chain: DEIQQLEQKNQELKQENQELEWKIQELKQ

[7] = target: T7, 4H850-bA; assay: two-hybrid library CCNG1
T7 chain: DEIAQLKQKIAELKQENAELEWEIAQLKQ

[8] = target: T8, 4H1360-AA; assay: two-hybrid library CCmax
T8 chain: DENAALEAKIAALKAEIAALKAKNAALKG

[9] = target: T9, 4H1454-AA; assay: two-hybrid library CCmax; conditions: mean of both orientations
T9 chain: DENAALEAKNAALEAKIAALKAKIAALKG

[10] = target: T10, 4H1558-AA; assay: two-hybrid library CCmax; conditions: mean of both orientations
T10 chain: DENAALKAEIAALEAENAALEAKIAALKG

[11] = target: T11, 4H1913-AA; assay: two-hybrid library CCmax; conditions: mean of both orientations
T11 chain: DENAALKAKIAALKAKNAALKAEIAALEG

[12] = target: T12, 4H249-AA; assay: two-hybrid library CCmax; conditions: mean of both orientations
T12 chain: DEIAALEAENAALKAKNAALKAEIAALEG

[13] = target: T13, 4H2580-AA; assay: two-hybrid library CCmax; conditions: mean of both orientations
T13 chain: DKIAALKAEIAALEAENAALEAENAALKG

[14] = target: T14, 4H2621-AA; assay: two-hybrid library CCmax; conditions: mean of both orientations
T14 chain: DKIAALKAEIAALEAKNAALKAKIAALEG

[15] = target: T15, 4H2699-AA; assay: two-hybrid library CCmax; conditions: mean of both orientations
T15 chain: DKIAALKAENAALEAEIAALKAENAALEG

[16] = target: T16, 4H2728-AA; assay: two-hybrid library CCmax; conditions: mean of both orientations
T16 chain: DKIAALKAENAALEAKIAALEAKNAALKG

[17] = target: T17, 4H2774-AA; assay: two-hybrid library CCmax; conditions: mean of both orientations
T17 chain: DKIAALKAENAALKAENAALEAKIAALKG

[18] = target: T18, 4H2903-AA; assay: two-hybrid library CCmax; conditions: mean of both orientations
T18 chain: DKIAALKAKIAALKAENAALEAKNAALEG

[19] = target: T19, 4H2961-AA; assay: two-hybrid library CCmax; conditions: mean of both orientations
T19 chain: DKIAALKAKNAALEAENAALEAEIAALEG

[20] = target: T20, 4H3049-AA; assay: two-hybrid library CCmax; conditions: mean of both orientations
T20 chain: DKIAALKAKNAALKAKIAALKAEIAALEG

[21] = target: T21, 4H3129-AA; assay: two-hybrid library CCmax; conditions: mean of both orientations
T21 chain: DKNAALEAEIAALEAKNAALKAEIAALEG

[22] = target: T22, 4H341-AA; assay: two-hybrid library CCmax; conditions: mean of both orientations
T22 chain: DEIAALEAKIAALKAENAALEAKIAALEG

[23] = target: T23, 4H3414-AA; assay: two-hybrid library CCmax; conditions: mean of both orientations
T23 chain: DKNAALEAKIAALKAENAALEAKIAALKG

[24] = target: T24, 4H3595-AA; assay: two-hybrid library CCmax; conditions: mean of both orientations
T24 chain: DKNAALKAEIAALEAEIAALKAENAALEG

[25] = target: T25, 4H3629-AA; assay: two-hybrid library CCmax; conditions: mean of both orientations
T25 chain: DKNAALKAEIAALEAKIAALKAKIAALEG

[26] = target: T26, 4H3782-AA; assay: two-hybrid library CCmax; conditions: mean of both orientations
T26 chain: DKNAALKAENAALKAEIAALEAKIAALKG

[27] = target: T27, 4H380-AA; assay: two-hybrid library CCmax; conditions: mean of both orientations
T27 chain: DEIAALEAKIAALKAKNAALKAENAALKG

[28] = target: T28, 4H3939-AA; assay: two-hybrid library CCmax; conditions: mean of both orientations
T28 chain: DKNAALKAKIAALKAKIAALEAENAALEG

[29] = target: T29, 4H3969-AA; assay: two-hybrid library CCmax; conditions: mean of both orientations
T29 chain: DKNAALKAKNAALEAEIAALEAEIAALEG

[30] = target: T30, 4H446-AA; assay: two-hybrid library CCmax; conditions: mean of both orientations
T30 chain: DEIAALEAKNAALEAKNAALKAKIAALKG

[31] = target: T31, 4H464-AA; assay: two-hybrid library CCmax; conditions: mean of both orientations
T31 chain: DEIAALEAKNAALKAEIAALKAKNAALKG

[32] = target: T32, 4H483-AA; assay: two-hybrid library CCmax; conditions: mean of both orientations
T32 chain: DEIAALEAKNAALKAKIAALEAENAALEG

[33] = target: T33, 4H63-AA; assay: two-hybrid library CCmax; conditions: mean of both orientations
T33 chain: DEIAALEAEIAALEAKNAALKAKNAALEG

B1: 4H2745-bN (peptide)
chain: DKIQQLKQENQELEQKNQELKWEIQELEQ
- interaction score [1]: -0.754
- interaction score [2]: -0.786
- interaction score [3]: -0.693
- interaction score [4]: -1.56
- interaction score [5]: -0.46
- interaction score [6]: 1.07
- interaction score [7]: -0.544

B2: 4H1360-AA (peptide)
chain: DENAALEAKIAALKAEIAALKAKNAALKG
- interaction score [8]: -0.121
- interaction score [9]: -1.08
- interaction score [10]: -0.811
- interaction score [11]: -1.61
- interaction score [12]: -1.76
- interaction score [13]: 1.2
- interaction score [14]: -1.11
- interaction score [15]: 0.416
- interaction score [16]: -1.69
- interaction score [17]: -1.2
- interaction score [18]: 0.0597
- interaction score [19]: -1.52
- interaction score [20]: -0.108
- interaction score [21]: -1.34
- interaction score [22]: 0.0278
- interaction score [23]: -1.25
- interaction score [24]: 2
- interaction score [25]: 0.958
- interaction score [26]: -0.0635
- interaction score [27]: -1.11
- interaction score [28]: 0.656
- interaction score [29]: 0.163
- interaction score [30]: -1.69
- interaction score [31]: -1.69
- interaction score [32]: -1.58
- interaction score [33]: 0.265
